According to publication PMC7881136, “Mechanism of karyopherin-β2 binding and nuclear import of ALS variants FUS(P525L) and FUS(R495X)” (Scientific Reports, 2021):

How the values were obtained:
Conditions in all cases: both partners purified
[1] = target: T1, FUS(P525L)^PY-NLS (475–526, P525L), MBP removed (UniProt P35637 475-526, P525L); test: crystal structure; Kapβ2ΔLoop·FUS(P525L) PY-NLS complex, 2.7 Å, space group P2(1)2(1)2, molecular replacement; crystals from 1 M succinic acid pH 7.0, 1% PEG MME2000, 20 °C
T1 construct: FUS residues 475–526 with the ALS mutation P525L; residues 507–526 modeled in the crystal structure; also called FUS(475–526, P525L); FUS PY-NLS(P525L); source: E. coli, lysed together with bacteria expressing GST-Kapβ2ΔLoop; complex purified (GSH sepharose, amylose, TEV, gel filtration); not shown: MBP, N-terminal, cleaved
T1 sequence (looked up): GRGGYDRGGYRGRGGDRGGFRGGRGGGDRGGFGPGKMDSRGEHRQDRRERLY

[2] = target: T2, Kapβ2 (untagged, GST removed) (human, UniProt Q92973-2 1-890); test: ITC; quality control of the Kapβ2 preparations with MBP-hnRNP A1 PY-NLS; set-up not told
T2 construct: Karyopherin β2 (Kapβ2, Transportin-1, TNPO1), human; used for ITC and turbidity assays; also called Karyopherin-β2; Transportin-1; source: E. coli BL21 (DE3), purified (GSH column, Tev cleavage, anion exchange, SEC Superdex200)
T2 sequence (looked up): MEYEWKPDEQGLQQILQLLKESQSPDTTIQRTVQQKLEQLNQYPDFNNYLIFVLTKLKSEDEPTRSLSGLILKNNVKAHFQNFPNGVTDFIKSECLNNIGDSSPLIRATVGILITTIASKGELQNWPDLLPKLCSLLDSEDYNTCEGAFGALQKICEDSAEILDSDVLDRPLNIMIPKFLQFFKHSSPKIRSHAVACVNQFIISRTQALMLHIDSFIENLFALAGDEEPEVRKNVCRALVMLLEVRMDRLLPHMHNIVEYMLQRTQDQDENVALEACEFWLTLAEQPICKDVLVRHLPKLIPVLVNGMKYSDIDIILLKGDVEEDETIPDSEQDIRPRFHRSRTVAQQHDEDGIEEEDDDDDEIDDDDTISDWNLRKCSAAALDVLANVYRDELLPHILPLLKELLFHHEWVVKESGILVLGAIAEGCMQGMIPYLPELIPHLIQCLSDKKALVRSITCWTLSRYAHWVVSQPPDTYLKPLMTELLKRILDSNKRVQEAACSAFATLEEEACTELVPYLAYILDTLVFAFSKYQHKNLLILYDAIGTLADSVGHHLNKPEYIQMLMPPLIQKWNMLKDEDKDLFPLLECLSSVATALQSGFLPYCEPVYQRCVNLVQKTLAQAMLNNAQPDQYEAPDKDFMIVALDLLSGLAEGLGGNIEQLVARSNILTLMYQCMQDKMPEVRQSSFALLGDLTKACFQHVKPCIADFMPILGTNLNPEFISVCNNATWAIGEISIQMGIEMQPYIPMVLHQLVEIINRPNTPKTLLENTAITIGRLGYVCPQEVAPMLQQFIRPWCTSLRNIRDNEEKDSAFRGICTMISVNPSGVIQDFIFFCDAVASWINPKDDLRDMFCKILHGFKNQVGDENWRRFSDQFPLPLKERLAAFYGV

[3] = target: T2, Kapβ2 (untagged, GST removed); test: ITC; reversed set-up: 10 μM MBP-FUS protein in the cell, 100 μM or 200 μM Kapβ2 in the syringe; 20 mM Tris–HCl, 150 mM NaCl, 10% glycerol, 2 mM BME; 20 °C; single class of binding sites; 'apparent' KD for FUS(1–370)

B1: Kapβ2ΔLoop (residues 337–367 replaced with a GGSGGSG linker) (natural protein, human)
chain: MEYEWKPDEQGLQQILQLLKESQSPDTTIQRTVQQKLEQLNQYPDFNNYLIFVLTKLKSEDEPTRSLSGLILKNNVKAHFQNFPNGVTDFIKSECLNNIGDSSPLIRATVGILITTIASKGELQNWPDLLPKLCSLLDSEDYNTCEGAFGALQKICEDSAEILDSDVLDRPLNIMIPKFLQFFKHSSPKIRSHAVACVNQFIISRTQALMLHIDSFIENLFALAGDEEPEVRKNVCRALVMLLEVRMDRLLPHMHNIVEYMLQRTQDQDENVALEACEFWLTLAEQPICKDVLVRHLPKLIPVLVNGMKYSDIDIILLKGDVEEDETIPDSEQDIRGGSGGSGDTISDWNLRKCSAAALDVLANVYRDELLPHILPLLKELLFHHEWVVKESGILVLGAIAEGCMQGMIPYLPELIPHLIQCLSDKKALVRSITCWTLSRYAHWVVSQPPDTYLKPLMTELLKRILDSNKRVQEAACSAFATLEEEACTELVPYLAYILDTLVFAFSKYQHKNLLILYDAIGTLADSVGHHLNKPEYIQMLMPPLIQKWNMLKDEDKDLFPLLECLSSVATALQSGFLPYCEPVYQRCVNLVQKTLAQAMLNNAQPDQYEAPDKDFMIVALDLLSGLAEGLGGNIEQLVARSNILTLMYQCMQDKMPEVRQSSFALLGDLTKACFQHVKPCIADFMPILGTNLNPEFISVCNNATWAIGEISIQMGIEMQPYIPMVLHQLVEIINRPNTPKTLLENTAITIGRLGYVCPQEVAPMLQQFIRPWCTSLRNIRDNEEKDSAFRGICTMISVNPSGVIQDFIFFCDAVASWINPKDDLRDMFCKILHGFKNQVGDENWRRFSDQFPLPLKERLAAFYGV
notes: linker that replaces residues 337–367; crystallisation construct; also called GST-Kapβ2ΔLoop; source: E. coli, lysed together with bacteria expressing MBP-FUS(475–526, P525L); complex purified (GSH sepharose, amylose, TEV, gel filtration)
binding result [1]: binds

B2: MBP-hnRNP A1 PY-NLS (domain or fragment)
chain: GGSYNDFGNYNNQSSNFGPMKGGNFGGRSSGPYGGGGQYFAKPRNQGGY
modifications: Limits not printed: conventional hnRNP A1 PY-NLS (M9) construct 257-305 in the 320-aa A1-A isoform, shifted by +52 to the 372-aa canonical entry. MBP omitted.
Kd [2]: ~50 nM

B3: MBP-FUS(R495X) (residues 1–494) (domain or fragment, UniProt P35637 1-494, looked up)
chain: MASNDYTQQATQSYGAYPTQPGQGYSQQSSQPYGQQSYSGYSQSTDTSGYGQSSYSSYGQSQNTGYGTQSTPQGYGSTGGYGSSQSSQSSYGQQSSYPGYGQQPAPSSTSGSYGSSSQSSSYGQPQSGSYSQQPSYGGQQQSYGQQQSYNPPQGYGQQNQYNSSSGGGGGGGGGGNYGQDQSSMSSGGGSGGGYGNQDQSGGGGSGGYGQQDRGGRGRGGSGGGGGGGGGGYNRSSGGYEPRGRGGGRGGRGGMGGSDRGGFNKFGGPRDQGSRHDSEQDNSDNNTIFVQGLGENVTIESVADYFKQIGIIKTNKKTGQPMINLYTDRETGKLKGEATVSFDDPPSAKAAIDWFDGKEFSGNPIKVSFATRRADFNRGGGNGRGGRGRGGPMGRGGYGGGGSGGGGRGGFPSGGGGGGGQQRAGDWKCPNPTCENMNFSWRNECNQCKAPKPDGPGGGPGGSHMGGNYGDDRRGGRGGYDRGGYRGRGGDRGGF
notes: source: E. coli BL21 (DE3), purified (amylose resin, SEC); not shown: MBP, N-terminal, kept
Kd [3]: 330 nM
